Assay results from patent US10253078 (ZEALAND PHARMA A S, dated 2019).
Positions count from the first letter of the chain named. Starred links: 1 amine or outer side, 2 acyl side, 3 side chain; linkers in the order of their positions; H or OH if unused. Non-standard residues stand in square brackets, D forms with d. Groups on a side chain read outwards from the residue. *: point of attachment. C20 diacid = O=C(O)CCCCCCCCCCCCCCCCCCC(=O)*; γGlu = O=C(O)[C@H](CCC(=O)[*:2])N[*:1]; Aib = CC(C)(N)C(=O)O

T1: human GIP receptor (human, UniProt P48546 22-466)
T1 sequence (looked up): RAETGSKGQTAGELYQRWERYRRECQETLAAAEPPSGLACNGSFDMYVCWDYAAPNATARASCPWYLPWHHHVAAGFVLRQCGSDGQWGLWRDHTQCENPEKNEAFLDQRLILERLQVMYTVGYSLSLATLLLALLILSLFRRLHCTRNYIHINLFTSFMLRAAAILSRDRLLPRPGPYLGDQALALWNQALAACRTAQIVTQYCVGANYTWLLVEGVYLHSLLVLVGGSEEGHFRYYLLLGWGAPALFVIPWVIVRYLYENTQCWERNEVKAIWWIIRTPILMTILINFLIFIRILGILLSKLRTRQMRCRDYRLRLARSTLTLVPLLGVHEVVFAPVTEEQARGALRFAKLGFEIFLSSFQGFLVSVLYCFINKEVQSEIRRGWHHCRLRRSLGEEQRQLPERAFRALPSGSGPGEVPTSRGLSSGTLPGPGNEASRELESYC

B1: Compound 20 (peptide)
peptide: YAEGTFISDYSIELDKKAQRAFVEWLLAQGPSSGAPPPS
modifications: Aib at 2; Lys 17 side chain acylated: K((19-Carboxy-nonadecanoyl)-[(Piperazine-1-yl)-acetyl]-Peg3-Peg3); C-terminal amide (-NH2)
B2: Compound 41 (peptide)
peptide: B1 peptide with Q19A, R20Q, V23I
modifications: Aib at 2; Lys 17 side chain acylated: K((19-Carboxy-nonadecanoyl)-[(Piperazine-1-yl)-acetyl]-Peg3-Peg3); C-terminal amide (-NH2)
B3: Compound 21 (peptide)
peptide: B1 peptide with R20K, A21E, Q29A
modifications: Aib at 2; Lys 17 side chain acylated: K((19-Carboxy-nonadecanoyl)-[(Piperazine-1-yl)-acetyl]-Peg3-Peg3); C-terminal amide (-NH2)

target: T1, human GIP receptor; test: cell-based or functional assay

Binder | EC50, hGIP-R level of cAMP (HEK293 cells expressing human GIP R) [nM]
H-Y[Aib]EGTFISDYSIELDKIAAQDFVEWLLAGPSSGAPPPSK([Peg3-Peg3-γGlu-C20 diacid])-NH2 [Compound 27] | 0.013
B1 | 0.007
B2 | 0.014
B3 | 0.007
H-Y[Aib]EGTFISDYSIELDKK([Peg3-Peg3-γGlu-C20 diacid])AAQDFVNWLLAAGPSSGAPPPS-NH2 [Compound 30] | 0.009
H-Y[Aib]EGTFISDYSIELDKIAAQDFIEWLLAGPSSGAPPPSK([Peg3-Peg3-γGlu-C20 diacid])-NH2 [Compound 25] | 0.032
H-Y[Aib]EGTFISDYSIELEKIAQRAFVEWLLAQK([Peg3-Peg3-γGlu-C20 diacid])-NH2 [Compound 14] | 0.024
H-Y[Aib]EGTFISDYSIELDKIAQRAFIEWLLAQGPSSGAPPPSK([Peg3-Peg3-γGlu-C20 diacid])-NH2 [Compound 28] | 0.007
H-Y[Aib]EGTFISDYSIELDKIAQKEFIEWLLAGPSSGAPPPSK([Peg3-Peg3-γGlu-C20 diacid])-NH2 [Compound 24] | 0.008
H-Y[Aib]EGTFISDYSIELDKK([Peg3-Peg3-γGlu-C20 diacid])AAQDFVNWLLAQGPSSGAPPPS-NH2 [Compound 10] | 0.007
H-Y[Aib]EGTFISDYSIELDKK([Peg3-Peg3-γGlu-C20 diacid])AAQAFIEWLLAQGPSSGAPPPS-NH2 [Compound 40] | 0.01
H-Y[Aib]EGTFISDYSIELEKIAQRAFVEWLLAQGPSSGAPPPSK([Peg3-Peg3-γGlu-C20 diacid])-NH2 [Compound 13] | 0.014
H-Y[Aib]EGTFISDYSIELDKIAQRAFIEWLLAGPSSGAPPPSK([Peg3-Peg3-γGlu-C20 diacid])-NH2 [Compound 23] | 0.01
H-Y[Aib]EGTFISDYSIELDK([Peg3-Peg3-γGlu-C20 diacid])IAQRAFIEWLLAQGPSSGAPPPS-NH2 [Compound 34] | 0.011

target: T1, human GIP receptor; test: cell-based or functional assay; remark: another data set of the same source

Binder | EC50 hGIP R (cAMP, HEK293 cells expressing the GIP R) [nM]
H-Y[Aib]EGTFISDYSIELDKIAAQDFVEWLLAGPSSGAPPPSK([Peg3-Peg3-γGlu-C20 diacid])-NH2 [Compound 27] | 0.017
B1 | 0.006
B2 | 0.01
B3 | 0.006
H-Y[Aib]EGTFISDYSIELDKK([Peg3-Peg3-γGlu-C20 diacid])AAQDFVNWLLAAGPSSGAPPPS-NH2 [Compound 30] | 0.014
H-Y[Aib]EGTFISDYSIELDKIAAQDFIEWLLAGPSSGAPPPSK([Peg3-Peg3-γGlu-C20 diacid])-NH2 [Compound 25] | 0.008
H-Y[Aib]EGTFISDYSIELEKIAQRAFVEWLLAQK([Peg3-Peg3-γGlu-C20 diacid])-NH2 [Compound 14] | 0.014
H-Y[Aib]EGTFISDYSIELDKIAQRAFIEWLLAQGPSSGAPPPSK([Peg3-Peg3-γGlu-C20 diacid])-NH2 [Compound 28] | 0.013
H-Y[Aib]EGTFISDYSIELDKIAQKEFIEWLLAGPSSGAPPPSK([Peg3-Peg3-γGlu-C20 diacid])-NH2 [Compound 24] | 0.01
H-Y[Aib]EGTFISDYSIELDKK([Peg3-Peg3-γGlu-C20 diacid])AAQDFVNWLLAQGPSSGAPPPS-NH2 [Compound 10] | 0.008
H-Y[Aib]EGTFISDYSIELDKK([Peg3-Peg3-γGlu-C20 diacid])AAQAFIEWLLAQGPSSGAPPPS-NH2 [Compound 40] | 0.007
H-Y[Aib]EGTFISDYSIELEKIAQRAFVEWLLAQGPSSGAPPPSK([Peg3-Peg3-γGlu-C20 diacid])-NH2 [Compound 13] | 0.008
H-Y[Aib]EGTFISDYSIELDKIAQRAFIEWLLAGPSSGAPPPSK([Peg3-Peg3-γGlu-C20 diacid])-NH2 [Compound 23] | 0.005
H-Y[Aib]EGTFISDYSIELDK([Peg3-Peg3-γGlu-C20 diacid])IAQRAFIEWLLAQGPSSGAPPPS-NH2 [Compound 34] | 0.017

target: human GLP-1 receptor (human, UniProt P43220 24-463); test: cell-based or functional assay

Binder | EC50 hGLP1 R (cAMP, HEK293 cells expressing the GLP-1R) [nM]
H-Y[Aib]EGTFISDYSIELDKIAAQDFVEWLLAGPSSGAPPPSK([Peg3-Peg3-γGlu-C20 diacid])-NH2 [Compound 27] | > 10
B1 | > 3
B2 | > 10
B3 | > 3
H-Y[Aib]EGTFISDYSIELDKK([Peg3-Peg3-γGlu-C20 diacid])AAQDFVNWLLAAGPSSGAPPPS-NH2 [Compound 30] | > 10
H-Y[Aib]EGTFISDYSIELDKIAAQDFIEWLLAGPSSGAPPPSK([Peg3-Peg3-γGlu-C20 diacid])-NH2 [Compound 25] | > 100
H-Y[Aib]EGTFISDYSIELEKIAQRAFVEWLLAQK([Peg3-Peg3-γGlu-C20 diacid])-NH2 [Compound 14] | > 10
H-Y[Aib]EGTFISDYSIELDKIAQRAFIEWLLAQGPSSGAPPPSK([Peg3-Peg3-γGlu-C20 diacid])-NH2 [Compound 28] | > 3
H-Y[Aib]EGTFISDYSIELDKIAQKEFIEWLLAGPSSGAPPPSK([Peg3-Peg3-γGlu-C20 diacid])-NH2 [Compound 24] | > 10
H-Y[Aib]EGTFISDYSIELDKK([Peg3-Peg3-γGlu-C20 diacid])AAQDFVNWLLAQGPSSGAPPPS-NH2 [Compound 10] | > 10
H-Y[Aib]EGTFISDYSIELDKK([Peg3-Peg3-γGlu-C20 diacid])AAQAFIEWLLAQGPSSGAPPPS-NH2 [Compound 40] | > 10
H-Y[Aib]EGTFISDYSIELEKIAQRAFVEWLLAQGPSSGAPPPSK([Peg3-Peg3-γGlu-C20 diacid])-NH2 [Compound 13] | > 10
H-Y[Aib]EGTFISDYSIELDKIAQRAFIEWLLAGPSSGAPPPSK([Peg3-Peg3-γGlu-C20 diacid])-NH2 [Compound 23] | > 10
H-Y[Aib]EGTFISDYSIELDK([Peg3-Peg3-γGlu-C20 diacid])IAQRAFIEWLLAQGPSSGAPPPS-NH2 [Compound 34] | > 10
